For assay [1], the target named is Rap1a (resistance-associated protein 1a, immunity protein of Ssp1), without N-terminal periplasmic targeting sequence (Serratia marcescens). The assay can be described thus: SEC; Rap1a alone in solution (Supplementary Fig. S1). A general note: SEC sorts molecules by how far they enter the pores of the column.
Assay [2] has the same target. As to the kind of experiment: crystal structure; Rap1a alone; reservoir 25% PEG 3350, 100 mM bis-tris pH 5.5; about 2.0 A; two molecules in the asymmetric unit.
In assay [3] the target is Rap2a (resistance-associated protein 2a, immunity protein of Ssp2), without N-terminal periplasmic targeting sequence (Serratia marcescens). As to the kind of experiment: crystal structure; Rap2a alone, 13.5 mg/ml; reservoir 25% PEG 1000, 0.1 M MES pH 6.5; 1.9 A; four molecules in the asymmetric unit.

Turning to “Rap1a (resistance-associated protein 1a, immunity protein of Ssp1), without N-terminal periplasmic targeting sequence (natural protein)”, the stoichiometry N in assay [1] and in assay [2] was 2 throughout.

“Rap2a (resistance-associated protein 2a, immunity protein of Ssp2), without N-terminal periplasmic targeting sequence (natural protein)” had a stoichiometry N in assay [3] of 2.

In general, stoichiometry N refers to a count of units in the complex or per binding partner.

For the origin of these results see paper PMC3852654.
